Results: doi:10.64898/2025.12.01.691715

Assays:
[1] = biological target: Myosin11 (smooth muscle myosin heavy chain, myosin II isoform) (mouse (endogenous in retina)) (UniProt O08638); experiment: FRET or BRET
[2] = biological target: Myosin11 (smooth muscle myosin heavy chain, myosin II isoform) (mouse (endogenous in retina)) (UniProt O08638)

Chain of UniProt O08638 (O08638 whole entry, canonical isoform): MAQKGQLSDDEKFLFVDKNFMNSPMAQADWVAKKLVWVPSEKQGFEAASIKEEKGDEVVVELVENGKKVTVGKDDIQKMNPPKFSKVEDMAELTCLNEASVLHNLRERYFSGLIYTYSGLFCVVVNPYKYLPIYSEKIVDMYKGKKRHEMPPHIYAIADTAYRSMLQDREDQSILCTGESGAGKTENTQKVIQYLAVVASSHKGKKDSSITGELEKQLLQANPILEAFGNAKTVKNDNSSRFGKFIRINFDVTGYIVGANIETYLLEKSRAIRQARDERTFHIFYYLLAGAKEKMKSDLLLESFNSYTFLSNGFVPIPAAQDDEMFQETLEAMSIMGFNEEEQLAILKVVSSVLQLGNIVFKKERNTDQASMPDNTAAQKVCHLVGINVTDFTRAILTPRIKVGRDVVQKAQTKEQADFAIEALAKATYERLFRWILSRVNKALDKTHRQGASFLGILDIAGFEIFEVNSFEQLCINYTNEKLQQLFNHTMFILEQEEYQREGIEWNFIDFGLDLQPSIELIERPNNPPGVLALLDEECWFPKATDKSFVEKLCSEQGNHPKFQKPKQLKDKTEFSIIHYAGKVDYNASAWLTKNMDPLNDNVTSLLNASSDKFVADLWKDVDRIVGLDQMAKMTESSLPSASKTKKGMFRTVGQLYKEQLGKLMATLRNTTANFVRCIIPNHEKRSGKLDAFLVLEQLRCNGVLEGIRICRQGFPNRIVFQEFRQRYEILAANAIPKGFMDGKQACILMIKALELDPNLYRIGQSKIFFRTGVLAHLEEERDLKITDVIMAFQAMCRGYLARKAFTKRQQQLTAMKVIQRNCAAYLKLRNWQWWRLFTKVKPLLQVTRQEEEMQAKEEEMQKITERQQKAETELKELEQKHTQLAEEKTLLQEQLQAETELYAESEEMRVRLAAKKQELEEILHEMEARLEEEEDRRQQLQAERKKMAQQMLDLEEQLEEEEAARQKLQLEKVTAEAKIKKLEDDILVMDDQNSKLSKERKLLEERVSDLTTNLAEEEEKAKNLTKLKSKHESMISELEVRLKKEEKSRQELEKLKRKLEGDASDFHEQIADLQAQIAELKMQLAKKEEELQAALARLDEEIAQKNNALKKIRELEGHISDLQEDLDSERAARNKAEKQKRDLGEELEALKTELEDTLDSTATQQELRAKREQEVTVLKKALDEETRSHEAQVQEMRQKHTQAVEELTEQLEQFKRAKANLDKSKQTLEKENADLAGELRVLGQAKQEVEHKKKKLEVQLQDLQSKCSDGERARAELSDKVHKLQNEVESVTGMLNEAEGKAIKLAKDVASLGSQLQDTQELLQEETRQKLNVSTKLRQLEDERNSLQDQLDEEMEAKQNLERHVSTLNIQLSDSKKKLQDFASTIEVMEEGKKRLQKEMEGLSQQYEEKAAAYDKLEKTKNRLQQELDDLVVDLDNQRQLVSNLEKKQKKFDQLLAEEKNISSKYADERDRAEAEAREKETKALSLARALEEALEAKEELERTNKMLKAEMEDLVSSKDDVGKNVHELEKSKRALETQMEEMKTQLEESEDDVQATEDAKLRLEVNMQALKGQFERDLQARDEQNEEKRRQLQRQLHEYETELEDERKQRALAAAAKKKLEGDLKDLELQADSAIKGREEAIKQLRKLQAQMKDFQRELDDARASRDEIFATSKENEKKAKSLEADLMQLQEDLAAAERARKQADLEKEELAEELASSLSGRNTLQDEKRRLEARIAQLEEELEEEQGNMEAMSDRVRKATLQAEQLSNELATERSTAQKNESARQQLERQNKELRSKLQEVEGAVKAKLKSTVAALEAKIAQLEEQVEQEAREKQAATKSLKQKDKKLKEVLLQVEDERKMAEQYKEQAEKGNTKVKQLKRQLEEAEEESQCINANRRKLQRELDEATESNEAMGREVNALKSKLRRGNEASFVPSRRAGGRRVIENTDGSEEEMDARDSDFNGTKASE

## α-smooth muscle actin (α-SMA) (from UniProt P62737 1-377) (natural protein)
[1]
  FRET efficiency: > 0.8
[2]
  JNDR after noradrenaline, mesh pericytes (orders 3-4), blebbistatin vs. vehicle: 0.81
